The text below walks through data of PMC4532887, “Structural and mechanistic insights into phospholipid transfer by Ups1–Mdm35 in mitochondria” (Nature Communications, 2015).

Where a chain is given by its changes, count along the chain named.

Conditions in all cases: both partners purified
In experiment [1] the target is T1, Ups1ΔC5 (Ups1 lacking the C-terminal five residues), N-terminally His6 tagged (S. cerevisiae, UniProt Q05776 1-170).
T1 construct: Ups1, Saccharomyces cerevisiae; full length is 175 amino acids, this construct lacks the C-terminal five residues; No removal of the His6 tag is described; the complex with PA was purified again on Ni-NTA before crystallisation; also called His6-Ups1ΔC5; source: E. coli SHuffle T7, coexpressed with Mdm35ΔC5, purified (Ni-NTA, Superdex 200); not shown: His6, N-terminal, kept
T1 sequence (looked up): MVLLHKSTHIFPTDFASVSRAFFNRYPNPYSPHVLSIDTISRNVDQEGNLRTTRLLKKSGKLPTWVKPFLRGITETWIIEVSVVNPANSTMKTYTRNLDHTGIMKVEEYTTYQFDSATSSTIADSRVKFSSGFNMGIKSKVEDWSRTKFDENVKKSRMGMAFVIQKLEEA
Description: crystal structure; Ups1ΔC5–Mdm35ΔC5 complex without PA, 1.40 Å; sitting drop at 20 °C, 0.2 M ammonium citrate tribasic pH 7.0, 20% polyethylene glycol 3,350.

Experiment [2] has as its target T2, full-length His6-Ups1 K61E/K155E (S. cerevisiae, UniProt Q05776 1-175, K61E | K155E).
T2 construct: Ups1, Saccharomyces cerevisiae, full length (175 amino acids); source: E. coli SHuffle T7, coexpressed with Mdm35, purified (Ni-NTA, Superdex 200)
T2 sequence (looked up): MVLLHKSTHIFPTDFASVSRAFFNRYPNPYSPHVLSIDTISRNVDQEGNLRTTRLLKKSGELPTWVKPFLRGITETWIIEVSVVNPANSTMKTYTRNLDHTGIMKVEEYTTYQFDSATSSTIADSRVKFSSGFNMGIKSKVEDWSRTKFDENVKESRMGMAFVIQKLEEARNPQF
In words: SEC; 10 μM full-length Ups1–Mdm35 complex (WT or mutant Ups1) after incubation with NBD-PA donor liposomes and centrifugation; supernatant on Superdex 200 10/300 GL; 20 mM Tris-HCl pH 7.5, 150 mM NaCl; absorbance at 280 and 460 nm.

For experiment [3], the target named is T3, full-length His6-Ups1 ΔLid (lacking the Ω1 loop, residues 62–71) (S. cerevisiae, UniProt Q05776 1-175, ΔLid (lacking residues 62–71)).
T3 construct: Ups1, Saccharomyces cerevisiae, full length (175 amino acids) less residues 62-71; source: E. coli SHuffle T7, coexpressed with Mdm35, purified (Ni-NTA, Superdex 200)
T3 sequence (looked up): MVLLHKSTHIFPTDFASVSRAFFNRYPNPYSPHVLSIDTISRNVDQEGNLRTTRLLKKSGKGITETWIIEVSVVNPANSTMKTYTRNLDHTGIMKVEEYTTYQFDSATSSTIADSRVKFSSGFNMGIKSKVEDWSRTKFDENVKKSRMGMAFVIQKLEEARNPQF
The description is as above.

Experiment [4] concerns the target T4, full-length Ups1, N-terminally His6 tagged (from the His6–Ups1–Mdm35 complex) (S. cerevisiae, UniProt Q05776 1-175).
T4 construct: Ups1, Saccharomyces cerevisiae, full length (175 amino acids); Added to the assays as the purified complex with Mdm35; also called WT Ups1; Ups1WT; source: E. coli SHuffle T7, coexpressed with Mdm35, purified (Ni-NTA, Superdex 200); not shown: His6, N-terminal, kept
T4 sequence (looked up): T2 sequence (looked up) with E61K, E155K
Described as above.

For experiment [5], the target named is T5, full-length His6-Ups1 K6E/K128E (S. cerevisiae, UniProt Q05776 1-175, K6E | K128E).
T5 construct: Ups1, Saccharomyces cerevisiae, full length (175 amino acids); source: E. coli SHuffle T7, coexpressed with Mdm35, purified (Ni-NTA, Superdex 200)
T5 sequence (looked up): T2 sequence (looked up) with K6E, E61K, K128E, E155K
The experiment is described as above.

Experiment [6] concerns the target T6, full-length His6-Ups1 R25E (S. cerevisiae, UniProt Q05776 1-175, R25E).
T6 construct: Ups1, Saccharomyces cerevisiae, full length (175 amino acids); source: E. coli SHuffle T7, coexpressed with Mdm35, purified (Ni-NTA, Superdex 200)
T6 sequence (looked up): T2 sequence (looked up) with R25E, E61K, E155K
Described as above.

Experiment [7] has as its target T7, full-length His6-Ups1 R25K (S. cerevisiae, UniProt Q05776 1-175, R25K).
T7 construct: Ups1, Saccharomyces cerevisiae, full length (175 amino acids); source: E. coli SHuffle T7, coexpressed with Mdm35, purified (Ni-NTA, Superdex 200)
T7 sequence (looked up): T2 sequence (looked up) with R25K, E61K, E155K
The description is as above.

The target in experiment [8] is T8, full-length His6-Ups1 N24C (S. cerevisiae, UniProt Q05776 1-175, N24C).
T8 construct: Ups1, Saccharomyces cerevisiae, full length (175 amino acids); In the pull-down with GST-Mdm35: the chain set free from Mdm35N25C by pretreatment with DTT; source: E. coli SHuffle T7, coexpressed with Mdm35N25C, purified (Ni-NTA, Superdex 200); not shown: His6, N-terminal, kept
T8 sequence (looked up): T2 sequence (looked up) with N24C, E61K, E155K
In words: cross-linking; disulfide bond between Ups1N24C and Mdm35N25C on separate chains; SDS–PAGE with or without β-mercaptoethanol, CBB staining.

B1: Mdm35ΔC5 (Mdm35 lacking the C-terminal five residues) (domain or fragment, S. cerevisiae, UniProt O60200 1-81, looked up)
chain: MGNIMSASFAPECTDLKTKYDSCFNEWYSEKFLKGKSVENECSKQWYAYTTCVNAALVKQGIKPALDEAREEAPFENGGKL
notes: Mdm35, Saccharomyces cerevisiae; full length is 86 residues, this construct lacks the C-terminal five residues; The coexpression plasmid encodes GST-Mdm35ΔC5; the stated 31 kDa of the heterodimer implies that GST was no longer on the chain, but its removal from the complex is not described; For Mdm35 crystallised alone (4YTV) GST was cleaved with PreScission protease; Disulfides Cys13–Cys52 and …
B1: in experiment [1], the binding result is “binds”.

B2: full-length Mdm35 (from the His6–Ups1–Mdm35 complex) (natural protein, S. cerevisiae, UniProt O60200 1-86, looked up)
chain: MGNIMSASFAPECTDLKTKYDSCFNEWYSEKFLKGKSVENECSKQWYAYTTCVNAALVKQGIKPALDEAREEAPFENGGKLKEVDK
notes: Mdm35, Saccharomyces cerevisiae, full length (86 residues); The coexpression plasmid encodes GST-Mdm35; also called Mdm35WT; source: E. coli SHuffle T7, coexpressed with His6-Ups1, purified (Ni-NTA, Superdex 200)
For B2, the binding result in experiment [2], in experiment [3], in experiment [4], in experiment [5], in experiment [6] and in experiment [7] was “binds” in each case.

B3: full-length Mdm35 N25C (natural protein, S. cerevisiae, UniProt O60200 1-86, looked up)
chain: B2 chain with N25C
notes: Mdm35, Saccharomyces cerevisiae, full length (86 residues); The coexpression plasmid encodes GST-Mdm35; removal of GST is not described; source: E. coli SHuffle T7, coexpressed with His6-Ups1N24C, purified (Ni-NTA, Superdex 200)
With B3, in experiment [8], the binding result is listed as “binds”.
